Reference: patent US20260224727A1, “COMPOUNDS AND METHODS FOR TREATING, AMELIORATING, OR […]” (Yale University, priority 2023, published 2026)
Bridge positions count the residues as written; N and C are the ends. Square brackets hold non-standard residues; d marks the D form. Ends that are not written are not given here. Cit = NC(=O)NCCC[C@H](N)C(=O)O

T1: recombinant biotin-ASGPR1 (Homo sapiens, UniProt P07306)
T1 construct: purchased Viva Biotech
T1 sequence (P07306 1-291): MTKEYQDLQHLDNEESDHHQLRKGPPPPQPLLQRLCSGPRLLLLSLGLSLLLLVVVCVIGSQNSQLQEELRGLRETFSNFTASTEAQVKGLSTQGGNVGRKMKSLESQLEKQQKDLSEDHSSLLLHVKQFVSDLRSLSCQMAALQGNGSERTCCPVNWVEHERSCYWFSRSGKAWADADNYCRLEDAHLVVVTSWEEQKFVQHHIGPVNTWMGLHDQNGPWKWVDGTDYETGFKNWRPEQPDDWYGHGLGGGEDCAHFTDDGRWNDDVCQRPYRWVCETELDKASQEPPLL


What was measured:
[1] = Plasma stability in rat plasma (LCMS, percent remaining); type: in vitro ADME; conditions: 37° C., 2 hours incubation, read-out: T1/2 plasma stability
Method: (§1) With reference to FIGS. 6A and 6B, plasma stability […] of CCP1-GN4 was measured at WuXi Biologics. The compound was incubated in human, rat, or mouse plasma at 37° C. for 2 hours. Aliquots were taken at various time points and the percent remaining of CCP1-GN4 was quantified by LCMS. For plasma protein binding (PPB), the compound (CCP1-GN4) was incubated with human, rat, or mouse plasma protein and the degree of plasma protein binding was determined by ultracentrifugation and LCMS.

[2] = Plasma stability in mouse plasma (LCMS, percent remaining); type: in vitro ADME; conditions: 37° C., 2 hours incubation, read-out: T1/2 plasma stability
Method: as §1

[3] = biological target: T1, recombinant biotin-ASGPR1; assay: SPR binding to ASGPR1 (Biacore 8K)
Method: With reference to FIG. 5B, binding to ASGPR1 was characterized by surface plasmon resonance (SPR) on a Biacore 8K instrument. Preceding binding measurement, recombinant biotin-ASGPR1 (Viva Biotech) was diluted to a concentration of 2 μg/mL in a buffer containing 20 mM Tris pH 8.0, 200 mM NaCl, 1 mM TCEP, 2 mM CaCl2), and 0.01% Tween-20. A Sensor Chip SA (Cytiva) was conditioned with three injections of 1 M NaCl in 50 mM NaOH prior to capturing […] ASGPR on the sensor chip surface. Capture was performed at a flow rate of 5 μL/min with a target level of 1000 RU. CCP1-GN4 was serially diluted across 10 points to final test concentrations (25 nM, 8.3 nM, 2.8 nM, 0.93 nM, 0.3 nM, 0.1 nM, 0.03 nM, 0.01 nM, 0.004 nM, 0.0013 nM) in buffer composed of 20 mM Tris pH 8.0, 200 mM NaCl, 1 mM TCEP, 2 mM CaCl2), 0.01% Tween-20, and a final solvent composition of 3% DMSO.
Samples were injected over the sensor chip surface with a contact time of 180 seconds, dissociation time of 600 seconds, flow rate of 40 μL/min and temperature of 25° C. Data files were fit to multi-cycle kinetics and steady state models using Biacore Insight Evaluation software to determine kinetic and affinity binding parameters.

[4] = Plasma stability in human plasma (LCMS, percent remaining); type: in vitro ADME; conditions: 37° C., 2 hours incubation, read-out: T1/2 plasma stability
Method: as §1

[5] = biological target: mouse anti-citrullinated epitope recombinant antibody clone 12G1 (anti-CCP1); assay: SPR binding of CCP1-GN4 to immobilized anti-CCP1 antibody (Biacore S200, steady state affinity); conditions: antibody clone 12G1 immobilized on CM5 chip, 25° C., steady state affinity model, read-out: KD (anti-CCP)
Method: With reference to FIG. 5A, binding of CCP1-GN4 was assessed using a surface plasmon resonance (SPR) on a Biacore S200 instrument. Prior to binding studies, 20 μg/mL mouse anti-citrullinated epitope recombinant antibody clone 12G1 (anti-CCP1) (Creative BioLabs) was immobilized to a Series S Sensor Chip CM5 using amine coupling to a target of 1.000 response units (RU) in 10 mM sodium acetate buffer pH 5.5. In parallel, normal human IgG isotype control (R&D Systems) was immobilized as a reference subtraction control using identical conditions. Sensor chips and reagents necessary for amine coupling were purchased from Cytiva.
CCP1-GN4 was serially diluted in 100% DMSO and transferred to a 96-well microplate. 1×HBS-P buffer (Cytiva) was added to dilute sample to final test concentrations (1000 nM, 250 nM, 62.5 nM, 15.6 nM, 3.9 nM, 1 nM) in 1% DMSO. A solution of 1×HBS-P (Cytiva) containing 1% DMSO was prepared as running buffer immediately prior to binding experiments.
Samples were injected over the sensor chip with a contact time of 300 seconds, dissociation time of 600 seconds, and a flow rate of 30 μL/minute at 25° C. Between injections, a solution containing 50% DMSO in 1×HBS-P buffer was used to wash any remaining bound analyte from the sensor chip surface. […]

[6] = biological target: mouse anti-citrullinated epitope recombinant antibody clone 12G1 (anti-CCP1) (Creative BioLabs); assay: SPR (Biacore S200), antibody 12G1 amine-coupled on CM5, CCP1-GN4 as analyte, steady state affinity model
[7] = biological target: mouse anti-citrullinated epitope recombinant antibody clone 12G1 (anti-CCP1) (Creative BioLabs)
[8] = biological target: recombinant biotin-ASGPR1 (Viva Biotech); assay: SPR (Biacore 8K), biotin-ASGPR1 captured on SA chip, CCP1-GN4 as analyte, multi-cycle kinetics and steady state models
[9] = biological target: recombinant biotin-ASGPR1 (Viva Biotech); assay: SPR (Biacore 8K), biotin-ASGPR1 captured on Sensor Chip SA, CCP1-GN4 as analyte, multi-cycle kinetics, 1:1 binding model, 25 C

Kd [6] [nM]	EC50 (read off the curve); Anti-CCP1 MFI of 12G1 with goat anti-mouse AF488 in HEK-293-ASGPR cells [7] [nM]	Kd [8] [nM]	koff [9] [s⁻¹]	kon [9] [M⁻¹ s⁻¹]	Molecule	half-life [1] [h]	half-life [2] [h]	Kd [3] [nM]	half-life [4] [h]	Kd [5] [nM]
–	–	–	–	–	CC(=O)N[C@H]1[C@H](OCCOCCOCCNC(=O)CCOCC(COCCC(=O)NCCOCCOCCO[C@@H]2O[C@H](CO)[C@H](O)[C@H](O)[C@H]2NC(C)=O)(COCCC(=O)NCCOCCOCCO[C@@H]2O[C@H](CO)[C@H](O)[C@H](O)[C@H]2NC(C)=O)NC(=O)CNC(=O)CCOCCOCCOCCOCc2cn(CC[C@H](N)C(=O)N[C@@H](Cc3c[nH]cn3)C(=O)N[C@@H](CCC(N)=O)C(=O)N[C@H]3CSSC[C@@H](C(=O)NCC(=O)N[C@@H](CCCNC(=N)N)C(=O)N[C@@H](CO)C(=O)NCC(=O)N[C@@H](CO)C(=O)O)NC(=O)[C@H](CCCNC(=N)N)NC(=O)CNC(=O)[C@H](CCCNC(=N)N)NC(=O)[C@H](CO)NC(=O)[C@H](CCCNC(=N)N)NC(=O)CNC(=O)[C@H](CCCNC(N)=O)NC(=O)[C@H]([C@@H](C)O)NC(=O)[C@H](CO)NC(=O)[C@H](CCC(=O)O)NC(=O)[C@H](CCC(N)=O)NC(=O)[C@H](Cc4c[nH]cn4)NC3=O)nn2)O[C@H](CO)[C@H](O)[C@@H]1O [CCP1-GN4]	> 4.83	> 4.83	1.92	> 4.83	75
75	50	1.92	0.029	1.51e+07	HQCHQEST[Cit]GRSRGRCGRSGS-OH (disulfide 3-16; not fully specified (N-terminus); also: Dab(N3) side-chain azide joined by CuAAC triazole to Target A001A-PEG4-Alkyne (tri-GalNAc)) [CCP1-GN4]	–	–	–	–	–
